Experiment [1] concerns the target HLA-A*01:01. In words: IEDB peptide-MHC binding, purified MHC/competitive/fluorescence; filed as Kd, often an IC50 or EC50 that approximates it; ≥ and ≤ were set here for values at or beyond the usual limits of such assays. As to conditions: source organism: Human immunodeficiency virus 1.
Experiment [2] addresses HLA-A*11:01. The description is as above. As to conditions: source organism: Human immunodeficiency virus 1.
Experiment [3] deals with HLA-B*57:01. Described as above. As to conditions: source organism: Human immunodeficiency virus 1.
Experiment [4] addresses HLA-B*15:01. The description is as above. The settings on record: source organism: Human immunodeficiency virus 1.
The target of another experiment is HLA-A*26:02. Described as above. The settings on record: source organism: Human immunodeficiency virus 1.
A further experiment concerns the target HLA-A*30:01. The description is as above. As to conditions: source organism: Human immunodeficiency virus 1.
A further experiment addresses HLA-A*02:03. Described as above. The settings on record: source organism: Human immunodeficiency virus 1.
Experiment [5] deals with HLA-B*18:01. The experiment is described as above. As to conditions: source organism: Human immunodeficiency virus 1.
Another experiment concerns the target HLA-B*35:01. The experiment is described as above. The settings on record: source organism: Human immunodeficiency virus 1.
Another experiment concerns the target HLA-A*02:06. The experiment is described as above. As to conditions: source organism: Human immunodeficiency virus 1.
The target of experiment [6] is HLA-A*01:01. The experiment can be described thus: IEDB peptide-MHC binding, purified MHC/competitive/radioactivity; ≥ and ≤ were set here for values at or beyond the usual limits of such assays. As to conditions: source organism: Homo sapiens.
The target of the next experiment is HLA-B*14:02. The experiment can be described thus: IEDB peptide-MHC binding, purified MHC/competitive/fluorescence; ≥ and ≤ were set here for values at or beyond the usual limits of such assays. The settings on record: source organism: Horsepox virus.
The target in a further experiment is HLA-A*26:01. In words: IEDB peptide-MHC binding, purified MHC/direct/fluorescence; filed as Kd, often an IC50 or EC50 that approximates it; ≥ and ≤ were set here for values at or beyond the usual limits of such assays. The settings on record: source organism: Variola virus.
A further experiment has as its target HLA-B*15:17. Described as above. The settings on record: source organism: Camelpox virus CMS.
For a further experiment, the target named is HLA-A*31:01. Described as above. As to conditions: source organism: Camelpox virus CMS.
The next experiment deals with HLA-A*69:01. The experiment is described as above. The settings on record: source organism: Camelpox virus CMS.
The next experiment addresses HLA-B*40:01. The description is as above. The settings on record: source organism: Camelpox virus CMS.
For experiment [7], the target named is HLA-A*01:01. Described as above. The settings on record: source organism: Camelpox virus CMS.
Experiment [8] addresses HLA-A*11:01. The description is as above. The settings on record: source organism: Camelpox virus CMS.
In experiment [9] the target is HLA-B*57:01. The description is as above. As to conditions: source organism: Camelpox virus CMS.
The next experiment deals with HLA-B*08:01. Described as above. As to conditions: source organism: Variola virus.
Another experiment deals with HLA-C*05:01. The description is as above. As to conditions: source organism: Vaccinia virus WR.
Experiment [10] deals with HLA-B*15:01. The description is as above. As to conditions: source organism: Camelpox virus CMS.
In the next experiment the target is HLA-B*58:01. Described as above. The settings on record: source organism: Camelpox virus CMS.
Another experiment concerns the target HLA-B*27:05. Described as above. The settings on record: source organism: Camelpox virus CMS.
The target in a further experiment is HLA-B*07:02. The experiment is described as above. As to conditions: source organism: Camelpox virus CMS.
The target in a further experiment is HLA-A*03:01. The experiment is described as above. As to conditions: source organism: Camelpox virus CMS.
Experiment [11] concerns the target HLA-B*18:01. Described as above. The settings on record: source organism: Camelpox virus CMS.
In another experiment the target is HLA-B*46:01. The experiment is described as above. As to conditions: source organism: Camelpox virus CMS.
The target in the next experiment is HLA-B*08:02. The experiment is described as above. The settings on record: source organism: Variola virus.
The target in the next experiment is HLA-B*51:01. The description is as above. The settings on record: source organism: Camelpox virus CMS.
The next experiment concerns the target HLA-A*02:01. The description is as above. The settings on record: source organism: Camelpox virus CMS.
The target in the next experiment is HLA-B*48:01. Described as above. The settings on record: source organism: Camelpox virus CMS.
A further experiment concerns the target HLA-A*32:15. The experiment can be described thus: IEDB peptide-MHC binding, purified MHC/competitive/fluorescence; filed as Kd, often an IC50 or EC50 that approximates it; ≥ and ≤ were set here for values at or beyond the usual limits of such assays. As to conditions: source organism: Vaccinia virus WR.
A further experiment concerns the target HLA-A*68:23. The experiment is described as above. The settings on record: source organism: Vaccinia virus WR.
A further experiment concerns the target HLA-B*15:42. The experiment is described as above. As to conditions: source organism: Vaccinia virus WR.
In the next experiment the target is HLA-B*39:01. The experiment is described as above. As to conditions: source organism: Vaccinia virus WR.
The target in a further experiment is HLA-B*15:09. Described as above. The settings on record: source organism: Vaccinia virus WR.
In another experiment the target is HLA-B*45:06. The description is as above. The settings on record: source organism: Vaccinia virus WR.

Turning to RSLFNTVAVLY, the Kd in the experiment with HLA-A*01:01 [1] is at least 20000 nM; with HLA-A*11:01 [2], 1350 nM; with HLA-B*57:01 [3], 676 nM; with HLA-B*15:01 [4], 907 nM; with HLA-A*26:02 it was 3070 nM; in the experiment with HLA-A*30:01, 2960 nM. In addition, the Kd with HLA-A*02:03 came out at 644 nM; in the experiment with HLA-B*18:01 [5], 360 nM; with HLA-B*35:01, 387 nM; with HLA-A*02:06, 952 nM.
On to IVDSLTEMY, for which the IC50 with HLA-A*01:01 [6] amounted to 7 nM.
In turn, MPAYIRNTL showed a 50% inhibitory concentration (IC50) in the experiment with HLA-B*14:02 of 453 nM. For the same sequence, the Kd with HLA-A*26:01 is 6950 nM; with HLA-B*15:17, at least 20000 nM; with HLA-A*31:01, at least 20000 nM; with HLA-A*69:01 it was at most 1 nM; with HLA-B*40:01, at least 20000 nM; with HLA-A*01:01 [7], at least 20000 nM. In addition, the Kd with HLA-A*11:01 [8] is at least 20000 nM; in the experiment with HLA-B*57:01 [9] it was at least 20000 nM; with HLA-B*08:01 it was 8 nM; in the experiment with HLA-C*05:01, at least 20000 nM; with HLA-B*15:01 [10], at least 20000 nM; with HLA-B*58:01 it was at least 20000 nM. For the same sequence, the Kd with HLA-B*27:05 was at least 20000 nM; in the experiment with HLA-B*07:02, 6.6 nM; in the experiment with HLA-A*03:01, at least 20000 nM; with HLA-B*18:01 [11] it was 2820 nM; in the experiment with HLA-B*46:01 it was at least 20000 nM; with HLA-B*08:02, 1370 nM. Also, the Kd in the experiment with HLA-B*51:01 was 676 nM; with HLA-A*02:01, at least 20000 nM; with HLA-B*48:01, 1520 nM; in the experiment with HLA-A*32:15, 63.6 nM; with HLA-A*68:23, 0.9 nM; with HLA-B*15:42, at least 5000 nM. For the same sequence, the Kd with HLA-B*39:01 is 36.4 nM; in the experiment with HLA-B*15:09, at least 20000 nM; in the experiment with HLA-B*45:06, at least 5000 nM.

(Values after the Immune Epitope Database (IEDB).)
